Where two headings read alike, the source gives them in different places. Blank lines part the entries; values can stand above or below the substance they belong to. No end group written: not given here.
What was measured:
human PTH-1 receptor = target: T1, human PTH-1 receptor (Homo sapiens, UniProt Q03431); test: cAMP accumulation in COS cells expressing the human PTH-1 receptor; type: cell-based; settings: for cAMP accumulation as compared to basal levels in un-stimulated cells: 60 min at 21° C.
T1 sequence (Q03431 27-593): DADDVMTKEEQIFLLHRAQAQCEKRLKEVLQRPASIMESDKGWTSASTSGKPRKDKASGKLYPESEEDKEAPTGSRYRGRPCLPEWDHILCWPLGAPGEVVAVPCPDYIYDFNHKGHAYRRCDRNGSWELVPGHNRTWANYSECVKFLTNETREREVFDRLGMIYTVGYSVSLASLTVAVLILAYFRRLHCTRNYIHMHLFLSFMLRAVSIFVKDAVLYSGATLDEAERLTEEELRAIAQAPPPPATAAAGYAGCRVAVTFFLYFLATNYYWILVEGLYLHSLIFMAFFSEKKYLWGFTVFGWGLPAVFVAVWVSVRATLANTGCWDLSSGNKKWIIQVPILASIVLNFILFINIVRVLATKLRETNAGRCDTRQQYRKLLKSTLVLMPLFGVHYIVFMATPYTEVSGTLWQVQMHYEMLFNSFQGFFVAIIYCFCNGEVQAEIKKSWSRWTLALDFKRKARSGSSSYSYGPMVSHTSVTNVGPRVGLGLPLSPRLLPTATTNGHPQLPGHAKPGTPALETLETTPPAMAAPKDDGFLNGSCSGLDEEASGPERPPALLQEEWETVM
Description: Intracellular cAMP accumulation is measured as described previously (Abou-Samra et al., J. Biol. Chem. 262:1129, 1986). Cells grown in 24-well plates are rinsed with culture medium containing 0.1% BSA and 2 mM IBMX. The cells are then incubated with an S-(L)n-B compound or derivatives thereof for 60 min. at 21° C. The supernatant is removed and the cells immediately frozen by placing the whole plate in dry ice powder. Intracellular cAMP is extracted by thawing the cells in 1 ml of 50 mM HCl and analyzed by a specific radioimmunoassay using an anti-cAMP antibody (e.g., Sigma, St. Louis, Mo.). A cAMP analog (2′-O-monosuccinyl-adenosine 3′:5′-cyclic monophosphate tyrosyl methyl ester, obtained from Sigma) which is used a tracer for cAMP is iodinated by the chloramine T method. Free iodine is removed by adsorbing the iodinated cAMP analog onto a C18Sep-pak cartridge (Waters, Milford, Mass.). After washing with dH20, the iodinated cAMP analog is eluted from the Sep-pak Cartridge with 40% acetonitrille (ACN) and 0.1% trifluoroacetic acid (TFA). The iodinated cAMP analog is lyophilized, reconstituted in 1 ml 0.1% TFA, and injected into a C18 reverse phase HPLC column (Waters). The column is equilibrated with 10% ACN in 0.1% TFA, and eluted with gradient of 10–30% ACN in 0.1% TFA. This allows separation of the mono-iodinated cAMP analog from the non-iodinated cAMP analog. The tracer is stable for up to 4 months when stored at −20° C. The standard used for the assay, adenosine 3′:5′-cyclic monophosphate, may be purchased from Sigma. Samples (1–10 µl of HCl extracts) or standards ([…]) are diluted in 50 Mm Na-acetate (pH 5.5), and acetylated with 10 μl of mixture of triethylamine and acetic anhydride (2:1 vol:vol). After acetylation, cAMP antiserum (100 μl) is added from a stock solution (1:4000) made in PBS (pH 7.4), 5 mM EDTA and 1% normal rabbit serum. The tracer is diluted in PBS (pH 7.4) with 0.1% BSA, and added (20,000 cpm/tube). The assay is incubated at 4° C. overnight. […] The supernatant is removed and the bound radioactivity is counted in a gamma-counter (Micromedic). […]
In order to screen for agonist activity, functional domain conjugate peptides of the invention were utilized in in vitro assays designed to measure cellular response via cAMP accumulation. Intracellular cAMP accumulation is measured as described previously (Abou-Samra et al., J. Biol. Chem. 262:1129, 1986).
Cells grown in 24-well plates are rinsed with culture medium containing 0.1% BSA and 2 mM IBMX. […] Intracellular cAMP is extracted by thawing the cells in 1 ml of 50 mM HCl and analyzed by a specific radioimmunoassay using an anti-cAMP antibody (e.g., Sigma, St. Louis, Mo.). […]

wildtype PTH receptor = target: T2, wildtype PTH receptor (Rattus norvegicus, UniProt P25961); settings: read-out: EC50, cAMP formation, cited from earlier work
T2 sequence (P25961 27-591): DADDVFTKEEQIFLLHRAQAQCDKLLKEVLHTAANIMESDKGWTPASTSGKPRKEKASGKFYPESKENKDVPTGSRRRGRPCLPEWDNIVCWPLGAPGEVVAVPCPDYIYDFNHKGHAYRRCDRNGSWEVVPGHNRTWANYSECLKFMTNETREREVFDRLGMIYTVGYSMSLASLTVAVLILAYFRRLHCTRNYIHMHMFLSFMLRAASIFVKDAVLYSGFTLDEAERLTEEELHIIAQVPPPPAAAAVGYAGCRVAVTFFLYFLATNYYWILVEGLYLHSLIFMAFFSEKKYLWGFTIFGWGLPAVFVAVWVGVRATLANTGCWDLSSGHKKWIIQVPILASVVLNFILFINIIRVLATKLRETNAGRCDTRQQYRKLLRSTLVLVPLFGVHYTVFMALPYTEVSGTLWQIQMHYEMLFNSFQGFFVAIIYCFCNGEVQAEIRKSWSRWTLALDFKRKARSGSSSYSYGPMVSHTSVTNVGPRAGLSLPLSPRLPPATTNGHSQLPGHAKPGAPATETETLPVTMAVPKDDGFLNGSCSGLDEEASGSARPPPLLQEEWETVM

truncated PTH receptor = target: T3, truncated PTH receptor (Rattus norvegicus, UniProt P25961); settings: cited from earlier work
T3 sequence (P25961 with tags, fused parts or gaps): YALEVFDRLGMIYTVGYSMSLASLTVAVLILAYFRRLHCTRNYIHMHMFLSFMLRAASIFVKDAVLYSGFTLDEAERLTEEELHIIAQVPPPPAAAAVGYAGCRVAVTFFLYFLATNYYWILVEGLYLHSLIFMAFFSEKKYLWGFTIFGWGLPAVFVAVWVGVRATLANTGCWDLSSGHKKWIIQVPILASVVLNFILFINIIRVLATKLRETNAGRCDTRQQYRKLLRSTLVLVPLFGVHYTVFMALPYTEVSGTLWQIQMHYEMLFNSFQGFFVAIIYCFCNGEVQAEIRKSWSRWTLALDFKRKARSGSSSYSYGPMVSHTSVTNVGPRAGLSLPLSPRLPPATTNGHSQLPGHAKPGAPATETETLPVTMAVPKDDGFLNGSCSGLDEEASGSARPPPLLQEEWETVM

Substance: PTH(1–14) (AVSEIQLMHNLGKH; not fully specified (C-terminus); listed as Homo sapiens) [N-terminal fragment (1–14) of parathyroid hormone]
- EC50 (wildtype PTH receptor; intact receptor): ~100 µM
- EC50 (truncated PTH receptor; read-out: EC50, cAMP formation): ~100 µM

Substance: PTH(1–34)
- EC50 (wildtype PTH receptor; wildtype receptor): ~0.003 µM
- potency, cAMP formation (truncated PTH receptor): severly diminished

Substance: [Ala^1] PTH(1–14)
- bioactivity over the background level of bioactivity of the native PTH(1–14) peptide (human PTH-1 receptor; serine at position one replaced by alanine): measurable increase in bioactivity

Further lines, results first:

- cAMP accumulation as compared to basal levels in un-stimulated cells (human PTH-1 receptor): increased levels of cAMP accumulation
Substance: PTH (1–5)-(Gly)9-PTH(15–31) (AVSEIGGGGGGGGGLNSMERVEWLRKKLQDV; modified PTH sequence) [PG9, S-(L)n-B peptide: PTH(1–5), linker (Gly)9, PTH(15–31)]

- cAMP accumulation as compared to basal levels in un-stimulated cells (human PTH-1 receptor): increased levels of cAMP accumulation
Substance: PTH (1–9)-(Gly)7-PTH(17–31) (AVSEIQLMHGGGGGGGSMERVEWLRKKLQDV; modified PTH sequence) [PG7, S-(L)n-B peptide: PTH(1–9), linker (Gly)7, PTH(17–31)]

- cAMP accumulation as compared to basal levels in un-stimulated cells (human PTH-1 receptor): increased levels of cAMP accumulation
Substance: PTH(1–9)-(Gly)5-PTH(15–31) (AVSEIQLMHGGGGGLNSMERVEWLRKKLQDV; modified PTH sequence) [PG5, S-(L)n-B peptide: PTH(1–9), linker (Gly)5, PTH(15–31)]
